Results as given in patent US6436654B1, “Methods for identifying compounds that modulate HIF-1α” (Pharmacia & Upjohn AB, priority 1998, dated 2002).
Blank lines part the entries; values can stand above or below the compound they belong to.

Tests used:
COS7 cells = assay: Subcellular distribution of GFP-HIF-1α chimeras in living cells (fluorescence microscopy, cell counting); format: cell-based, simian
[1] = test system: GAL4 responsive reporter plasmid; assay: Cotransfection of GAL4-HIF-1α fusion proteins with GAL4 responsive luciferase reporter; format: cell-based, simian
Excerpt: To analyze functional activities of HIF-1α independently of the endogenous DNA binding and dimerization domains and the Arnt partner, we next fused HIF-1α to the heterologous DNA binding domain of GAL4. Functional activity of the fusion protein was monitored in COS7 cells by a cotransfection assay using a reporter gene construct carrying five GAL4 DNA binding elements in front of thymidine kinase promoter and the luciferase gene. Six hours after transfection media was changed, and cells were either left uninduced or exposed to 1% oxygen for 30 h prior to harvest. In the presence of either empty expression vector or a vector expressing the minimal GAL4 DNA binding domain, reporter gene activity was unaltered by reduced oxygen levels. […] The GAL4 DNA binding domain is known to harbor an NLS motif capable of taking fusion proteins to the nucleus (Ma and Ptashne (1987) Cell 51, 113-119). We therefore used antibodies directed against the DNA binding domain of GAL4 to examine in both normoxic and hypoxic cells the intracellular localization of the GAL4-HIF-1α fusion protein by immunofluorescence.
Transcriptional activity of GFP and GAL4 fusion constructs was analyzed in a cotransfection assay where effector plasmids (0.2 μg/30-mm dish) together with a reporter gene (1.5 μg/30-mm dish) were introduced into COS7 or HeLa cells. […]

GST/Ref-1 = GST/Ref-1 (Homo sapiens, UniProt P27695); assay: Pull-down of [35S]methionine-labeled GAL4/HIF proteins with GST/Ref-1; format: binding; conditions: presence or absence of diamide
GST/Ref-1, sequence (P27695 whole entry, species assumed, the tested form may be a part): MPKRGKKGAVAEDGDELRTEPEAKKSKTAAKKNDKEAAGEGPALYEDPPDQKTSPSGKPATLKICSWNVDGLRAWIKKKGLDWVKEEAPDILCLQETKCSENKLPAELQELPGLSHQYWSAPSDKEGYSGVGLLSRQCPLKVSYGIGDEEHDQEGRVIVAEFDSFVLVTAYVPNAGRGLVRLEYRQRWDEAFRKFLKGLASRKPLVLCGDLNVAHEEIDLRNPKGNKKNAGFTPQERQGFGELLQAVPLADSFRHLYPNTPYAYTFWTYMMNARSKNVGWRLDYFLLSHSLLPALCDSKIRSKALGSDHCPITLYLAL
Method: The precise mechanism by which Ref-1 activates HIF-1α is not known. […] To further investigate whether Ref-1 could interact with HIF-1α, we tried to trap the interaction by using a crosslinking reagent such as diamide, which oxidizes cysteine sulfhydryls to disulfides. A series of experiments was performed with GST-tagged purified Ref-1. [^35S]methionine-labeled in vitro translated GAL4/HIF 1-826 was incubated with GST/Ref-1 in the presence or absence of diamide.
Next, we tried a series of pull-down experiments with [^35S]methionine-labeled in vitro translated GAL4/HIF […] and GAL4/HIF 531-584. […] An interaction between GAL4/HIF […] and GST/Ref-1 was also detected, and this interaction was enhanced in the presence of diamide. In excellent agreement with this observation the C-TAD contains two cysteine residues. […] Immunoblot analysis verified that the input concentrations of GST/Ref-1 or GST alone were similar.

[2] = test system: hypoxia responsive reporter gene (HRE-luc); assay: Cotransfection of GFP-HIF-1α fusion constructs with hypoxia responsive reporter gene (HRE-luc); format: cell-based, simian; conditions: 1% O2 vs normoxia, no CBP
Excerpt: We next examined the ability of GFP-HIF-1α fusion proteins in functional cotransfection assays where GFP-HIF-1α expression vectors were introduced into COS7 cells together with a hypoxia-responsive gene reporter construct carrying three tandem copies of the erythropoietin hypoxia responsive element (HRE) in front of the Herpes simplex thymidine kinase promoter and the luciferase gene. […] This reporter gene activity was further stimulated about 4-fold by hypoxia (FIG. 6A). In control experiments, transient expression of wild-type HIF-1α also yielded a similar pattern of reporter gene activation, albeit with a slightly lower potency generating about a 2-fold activation response upon exposure to hypoxia. […] In fact, stabilization of the fusion protein (FIG. 2C) by the GFP moiety may rather have enhanced the potency of the activation response produced by HIF-1α.
Transcriptional activity of GFP and GAL4 fusion constructs was analyzed in a cotransfection assay where effector plasmids (0.2 μg/30-mm dish) together with a reporter gene (1.5 μg/30-mm dish) were introduced into COS7 or HeLa cells. The reporter plasmid encoded firefly luciferase gene under the control of thymidine kinase minimal promoter and either five or three copies of GAL4 or HIF-responsive elements, respectively.

HIF-1α/Arnt complex = target: T1, HIF-1α/Arnt complex (Homo sapiens, UniProt Q16665); assay: pT81/HRE-Luc reporter assay with HIF-1α, Arnt and coactivators (CBP, TIF2, SRC-1); format: cell-based
T1 construct: expression plasmid for full-length HIF-1α (pCMV-HIF-1α); expressed in transfected cells
T1 sequence (Q16665 whole entry): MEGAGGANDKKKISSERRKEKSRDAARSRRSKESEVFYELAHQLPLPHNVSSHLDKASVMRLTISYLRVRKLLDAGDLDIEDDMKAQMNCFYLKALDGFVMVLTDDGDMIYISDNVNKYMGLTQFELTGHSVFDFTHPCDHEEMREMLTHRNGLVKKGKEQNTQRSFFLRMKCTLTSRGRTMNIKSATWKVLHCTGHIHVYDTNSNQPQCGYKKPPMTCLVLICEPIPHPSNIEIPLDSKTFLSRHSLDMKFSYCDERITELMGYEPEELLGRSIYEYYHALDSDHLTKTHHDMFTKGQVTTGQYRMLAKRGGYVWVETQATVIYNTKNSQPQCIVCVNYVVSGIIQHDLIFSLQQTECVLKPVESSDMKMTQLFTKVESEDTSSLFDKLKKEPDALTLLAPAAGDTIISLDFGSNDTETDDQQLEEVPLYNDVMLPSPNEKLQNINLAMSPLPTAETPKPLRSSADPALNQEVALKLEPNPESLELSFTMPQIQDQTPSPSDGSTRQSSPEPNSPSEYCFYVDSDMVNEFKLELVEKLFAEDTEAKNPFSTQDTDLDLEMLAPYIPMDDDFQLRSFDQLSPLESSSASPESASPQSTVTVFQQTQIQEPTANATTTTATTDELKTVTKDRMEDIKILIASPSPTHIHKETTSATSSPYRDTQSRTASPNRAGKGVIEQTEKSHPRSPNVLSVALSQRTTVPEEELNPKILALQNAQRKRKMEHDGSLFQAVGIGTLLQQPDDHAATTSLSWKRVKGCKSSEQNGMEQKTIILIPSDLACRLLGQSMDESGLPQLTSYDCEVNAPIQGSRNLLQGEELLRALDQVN
T1 sequence (P27540 whole entry partner): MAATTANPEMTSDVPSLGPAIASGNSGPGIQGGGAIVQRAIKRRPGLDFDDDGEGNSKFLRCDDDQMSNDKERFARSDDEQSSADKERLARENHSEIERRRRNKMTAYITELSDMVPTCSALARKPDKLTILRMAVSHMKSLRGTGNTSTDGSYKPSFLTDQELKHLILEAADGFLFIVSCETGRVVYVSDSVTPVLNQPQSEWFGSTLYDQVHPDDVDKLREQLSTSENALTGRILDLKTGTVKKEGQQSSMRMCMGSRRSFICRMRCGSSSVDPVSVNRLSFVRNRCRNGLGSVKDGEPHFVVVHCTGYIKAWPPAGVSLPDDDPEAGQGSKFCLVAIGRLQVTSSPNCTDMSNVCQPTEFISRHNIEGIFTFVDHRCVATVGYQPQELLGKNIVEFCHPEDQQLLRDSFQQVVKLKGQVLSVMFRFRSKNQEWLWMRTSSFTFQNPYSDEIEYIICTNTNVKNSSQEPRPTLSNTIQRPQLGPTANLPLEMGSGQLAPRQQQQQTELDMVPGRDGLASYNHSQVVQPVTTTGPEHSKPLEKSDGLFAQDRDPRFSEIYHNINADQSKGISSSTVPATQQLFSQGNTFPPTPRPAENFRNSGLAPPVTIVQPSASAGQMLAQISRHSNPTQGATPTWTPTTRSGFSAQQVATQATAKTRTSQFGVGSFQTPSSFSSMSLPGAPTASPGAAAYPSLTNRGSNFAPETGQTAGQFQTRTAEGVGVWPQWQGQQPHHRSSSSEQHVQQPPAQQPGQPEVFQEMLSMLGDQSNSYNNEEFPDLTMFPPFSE
Method: FIG. 8 The transcriptional coactivator TIF2 enhances the HIF-1α-mediated transactivation function and interacts with HIF-1α in vivo. COS7 cells were transiently cotransfected as described in Materials and Methods with 0.5 μg pT81/HRE-Luc reporter construct, hHIF1-α expression vector (pCMV4/HIF-1α, 0.2 μg), Arnt expression vector (pCMV4/Arnt, 0.2 μg) and 0.75-1.5 μg of either TIF2 (pSG5/TIF2) or CBP (Rc/RSV-CBP-HA), as indicated. The total amount of DNA was kept constant by the addition of parental pCMV4 when appropriate. Following transfection cells were incubated either under normoxic (21% O2) or hypoxic conditions (1% O2). Luciferase activities were normalized for transfection efficiency by cotransfection of alkaline phosphatase expressing pRSV-AF. Data are presented as luciferase activity relative to cells transfected with pCMV4 and reporter gene only and incubated at normoxia. Values represent the mean ±S.E. of two independent experiments.
(§1) FIG. 9 The transcriptional coactivator SRC-1 stimulates HIF-1α activity in a hypoxia-dependent manner and interacts in vitro with HIF-1α. (A) COS7 and (B) human embryonic kidney 293 cells were cotransfected with pT81/HRE-Luc (0.5 μg), 0.2 μg of pCMV4/HIF-1α (hHIF1-α), 0.2 μg of pCMV4/Arnt (Arnt), and 0.75-1.5 μg of SRC-1 (pSG5/SRC-1), as indicated. Six h after transfection cells were exposed to either 21 or 1% O2 for 36 h before harvest. Luciferase values are presented as relative luciferase activity as described in the legend to FIG. 1. The results of three independent experiments performed in duplicate ±S.E. are shown. (C) SRC-1 PAS domain is not required for functional interaction with HIF-1α. (Top) Schematic representation of full-length SRC-1 and SRC-1ΔPAS. (Bottom) pGAL4/HIF 71-826 was cotransfected into COS7 cells together with a reporter plasmid expressing the luciferase gene driven by the thymidine kinase minimal promoter under the control of five copies of GAL4-binding sites, and 1.5 μg of either full-length SRC-1 or a deletion mutant of SRC-1, SRC-1ΔPAS, lacking the PAS domain. Cells were exposed to 21 or 1% O2 for 36 h before harvest and reporter gene assays. Luciferase values are presented as relative luciferase activity as described in the legend to FIG. 1. The results of two independent experiments performed in duplicate +S.E. are shown. (D) In vitro interaction between SRC-1 and HIF-1α. COS7 cells were transfected with 10 μg of the expression plasmid pGST-HIF-1α (GST-HIF) or empty GST expression vector (GST). Cells were exposed to either 100 μM CoCl2 or vehicle (H2O) for 24 h. […] The eluted material was analyzed on 5% SDS-PAGE and visualized by fluorography. ⅕×Input represents one-fifth of the amount of [^35S]methionine-labeled SRC-1 used in the binding reactions. […]

GST-HIF-1α = target: T2, GST-HIF-1α (Homo sapiens, UniProt Q16665); assay: GST precipitation assay of in vitro translated [35S]labeled SRC-1 with GST-HIF-1α; format: binding
T2 construct: expressed in transfected cells; host or cells: COS7 cells, treated with 100 μM CoCl2 or vehicle; whole cell extract used
T2 sequence (Q16665 whole entry): as the sequence (Q16665 whole entry) above
Method: as §1, with “assays.” for “assays. Luciferase values are presented as relative luciferase activity as described in the legend to FIG. 1. The results of two independent experiments performed in duplicate +S.E. are shown. (D) In vitro interaction between SRC-1 and HIF-1α. COS7 cells were transfected with 10 μg of the expression plasmid pGST-HIF-1α (GST-HIF) or empty GST expression vector (GST). Cells were exposed to either 100 μM CoCl2 or vehicle (H2O) for 24 h.”

- increase of reporter gene activity by hypoxia (HIF-1α/Arnt complex; coexpression of HIF-1α and Arnt, 1% O2): ~1.5 fold
- stimulation of pT81/HRE-luc reporter gene activity (HIF-1α/Arnt complex; coexpression of HIF-1α and Arnt, normoxic conditions): around 10 fold
Compound: HIF-1α: transiently expressed wild-type human hypoxia-inducible factor-1α
- stimulation of HRE reporter gene activity by hypoxia compared to normoxia [2]: about 2 fold

- activation of the reporter gene over the levels observed at normoxia (HIF-1α/Arnt complex; coexpression with HIF-1α, COS7): around 12 fold
Compound: TIF2: p160 family transcriptional coactivator

Further lines, the compound ahead of its results:

Compound: [Cl-].[Cl-].[Co+2] [CoCl2]
- effect on nuclear import of GFP-HIF-1α (COS7 cells): induced nuclear import of GFP-HIF-1α

Compound: GAL4-HIF-1α: full length HIF-1α fused to the GAL4 DNA binding domain
- hypoxia-dependent activation of GAL4 reporter gene activity ([1]; 1% O2 vs normoxia, no exogenous coactivator): about 2 fold
- stimulation of GAL4 reporter activity by coexpressed CBP ([1]; hypoxic conditions, vs hypoxia without exogenous coactivator): 19 fold
- binding to GST/Ref-1 (in words) (GST/Ref-1): weakly bind GST/Ref-1

Compound: SRC-1: p160 family transcriptional coactivator
- enhancement of transcriptional activity of HIF-1α (HIF-1α/Arnt complex; normoxic conditions, COS7): around 3 fold
- binding to GST-HIF-1α (in words) (GST-HIF-1α; extract of cells treated with 100 μM CoCl2): specifically retained
- binding to GST-HIF-1α (in words) (GST-HIF-1α; extract of non-treated cells): no significant binding
